Source: publication doi:10.1101/2021.01.27.428466 (bioRxiv, 2021)

Target: T1, receptor-binding domain (RBD) of the spike protein of SARS-CoV-2 (SARS-CoV-2, UniProt P0DTC2)
T1 construct: also called re-engineered RBD
Assay: SEC
Conditions: both partners purified

B1: Sb16 (VHH)
VHH: QVQLVESGGGLVQAGGSLRLSCAASGFPVAYKTMWWYRQAPGKEREWVAAIESYGIKWTRYADSVKGRFTISRDNAKNTVYLQMNSLKPEDTAVYYCIVWVGAQYHGQGTQVTVSA
binding result: binds
